Target: Motif_38 protein HW450_07255 (UniProt A0A7G5FC37 1-70)
Assay: EMSA; EMSA: 20 mM Tris-HCl pH 7.5, 250 mM NaCl, 5% glycerol; 2 uL of 1 uM FAM-DNA (labeled:unlabeled strand 1:4) + 2 uL of ~10 uM protein in 20 uL; 37 C, 30 min
Settings: protein: recombinant; tags: His (pET-28a, Ni column); label: 5'FAM on strand 1; blunt

B1: Mot38-WT (dsDNA)
DNA 1: AATAAATCGGCACAATCGTGCCGATTTTGG
DNA 2: CCAAAATCGGCACGATTGTGCCGATTTATT
B1: binds.

Source: PMC12565409, “Computational–Experimental Identification of Palindromic Motifs Bound by Bacterial XRE Family Transcriptional Regulators”
